Target: 3XHA-ankyrin-G F1609R (UniProt G5E8K5)
Sequence of UniProt G5E8K5 (G5E8K5 whole entry F1609R): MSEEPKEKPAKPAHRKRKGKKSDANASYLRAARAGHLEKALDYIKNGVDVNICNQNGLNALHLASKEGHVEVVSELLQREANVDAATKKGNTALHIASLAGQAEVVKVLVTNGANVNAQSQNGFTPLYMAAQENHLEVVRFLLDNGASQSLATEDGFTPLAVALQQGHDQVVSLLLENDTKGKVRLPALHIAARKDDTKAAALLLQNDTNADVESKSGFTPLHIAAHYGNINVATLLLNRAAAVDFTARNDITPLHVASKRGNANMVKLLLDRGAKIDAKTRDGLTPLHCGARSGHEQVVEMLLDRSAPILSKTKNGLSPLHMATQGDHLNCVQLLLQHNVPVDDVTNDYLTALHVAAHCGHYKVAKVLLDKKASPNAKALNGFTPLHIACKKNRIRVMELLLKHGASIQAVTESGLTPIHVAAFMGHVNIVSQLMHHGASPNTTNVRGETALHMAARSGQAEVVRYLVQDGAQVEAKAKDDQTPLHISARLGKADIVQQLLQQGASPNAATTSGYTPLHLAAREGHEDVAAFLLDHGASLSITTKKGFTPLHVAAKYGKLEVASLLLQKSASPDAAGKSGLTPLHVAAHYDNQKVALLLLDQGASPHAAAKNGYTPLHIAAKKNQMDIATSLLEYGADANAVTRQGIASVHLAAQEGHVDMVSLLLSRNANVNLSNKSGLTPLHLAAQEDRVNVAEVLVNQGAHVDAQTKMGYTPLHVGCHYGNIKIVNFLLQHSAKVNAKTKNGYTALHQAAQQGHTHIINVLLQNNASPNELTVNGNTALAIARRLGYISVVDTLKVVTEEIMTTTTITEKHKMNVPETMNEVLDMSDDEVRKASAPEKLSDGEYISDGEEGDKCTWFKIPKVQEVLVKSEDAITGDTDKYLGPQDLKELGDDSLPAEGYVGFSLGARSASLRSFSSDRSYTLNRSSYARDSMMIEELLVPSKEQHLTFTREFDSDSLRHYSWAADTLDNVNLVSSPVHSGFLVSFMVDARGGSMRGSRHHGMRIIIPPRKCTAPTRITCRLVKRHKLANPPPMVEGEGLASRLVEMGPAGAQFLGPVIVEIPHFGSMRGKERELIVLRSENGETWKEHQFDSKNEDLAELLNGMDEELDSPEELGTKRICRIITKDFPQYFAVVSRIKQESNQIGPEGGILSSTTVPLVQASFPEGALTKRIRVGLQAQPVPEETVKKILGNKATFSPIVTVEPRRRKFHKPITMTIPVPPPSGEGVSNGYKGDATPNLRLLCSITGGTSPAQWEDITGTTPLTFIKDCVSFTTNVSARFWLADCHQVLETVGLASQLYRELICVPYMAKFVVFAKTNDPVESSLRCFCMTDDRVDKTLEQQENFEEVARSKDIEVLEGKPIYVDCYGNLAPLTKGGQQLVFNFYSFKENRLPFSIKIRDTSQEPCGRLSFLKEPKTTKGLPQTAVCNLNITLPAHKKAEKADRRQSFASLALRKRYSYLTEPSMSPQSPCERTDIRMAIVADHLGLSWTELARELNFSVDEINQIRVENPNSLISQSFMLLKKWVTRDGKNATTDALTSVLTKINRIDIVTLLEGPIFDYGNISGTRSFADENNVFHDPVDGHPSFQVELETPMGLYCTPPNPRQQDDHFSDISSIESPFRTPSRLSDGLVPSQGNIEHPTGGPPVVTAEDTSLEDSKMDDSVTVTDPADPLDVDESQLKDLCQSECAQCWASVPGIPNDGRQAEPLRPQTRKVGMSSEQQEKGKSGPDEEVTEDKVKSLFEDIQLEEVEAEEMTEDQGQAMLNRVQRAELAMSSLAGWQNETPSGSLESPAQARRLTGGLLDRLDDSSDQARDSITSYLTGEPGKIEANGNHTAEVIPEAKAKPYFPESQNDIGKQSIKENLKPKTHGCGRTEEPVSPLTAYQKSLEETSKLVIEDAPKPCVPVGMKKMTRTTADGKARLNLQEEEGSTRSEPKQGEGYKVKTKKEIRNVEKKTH

FRAP in dendritic spines of primary cortical neurons: mobile fraction of GFP-ankyrin-G^F1609R against GFP-ankyrin-G^WT, 200 s after photobleaching (GFP-tagged forms of the constructs): 22.4%
Substance: Homer1b/c, endogenous (from UniProt Q9Z2Y3 1-366) (natural protein)

Reference: paper PMC8254828
